Experimental data: patent US20210379129A1 (BIOCOMO INCORPORATION, published 2021)

How the values were obtained:
[1] = target: T1, mouse OX40L incorporated into the envelope of BC-PIV particles (mouse, UniProt P43488 1-198, Membrane-anchored type II protein on the BC-PIV envelope, expected as a homotrimer; one protomer is given.); experiment: ELISA: 1x10^6 BC-PIV particles coated per well, receptor-Fc added at 1, 10, 50, 100 ng, HRP-Protein A, absorbance at 450 nm
T1 construct: Whole membrane protein on virus particles coated on the ELISA plate (1x10^6 particles per well); The form 'whole, on cells' is the nearest choice; the carrier is a virus envelope; also called mouse OX40L-carrying BC-PIV; BC-PIV/OX40L
T1 sequence: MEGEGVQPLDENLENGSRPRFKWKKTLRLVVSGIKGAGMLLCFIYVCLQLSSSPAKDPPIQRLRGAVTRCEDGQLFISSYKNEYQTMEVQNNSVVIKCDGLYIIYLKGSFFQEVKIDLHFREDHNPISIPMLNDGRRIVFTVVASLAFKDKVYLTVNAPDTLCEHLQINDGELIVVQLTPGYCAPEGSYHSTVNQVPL

[2] = target: T2, mouse 4-1BBL incorporated into the envelope of BC-PIV particles (mouse, UniProt P41274 1-309, Membrane-anchored type II protein on the BC-PIV envelope; paragraph 280 expects trimers that associate into higher multimers; one protomer is given.); experiment: as above
T2 construct: Whole membrane protein on virus particles coated on the ELISA plate; also called mouse 4-1BBL-carrying BC-PIV; BC-PIV/4-1BBL
T2 sequence: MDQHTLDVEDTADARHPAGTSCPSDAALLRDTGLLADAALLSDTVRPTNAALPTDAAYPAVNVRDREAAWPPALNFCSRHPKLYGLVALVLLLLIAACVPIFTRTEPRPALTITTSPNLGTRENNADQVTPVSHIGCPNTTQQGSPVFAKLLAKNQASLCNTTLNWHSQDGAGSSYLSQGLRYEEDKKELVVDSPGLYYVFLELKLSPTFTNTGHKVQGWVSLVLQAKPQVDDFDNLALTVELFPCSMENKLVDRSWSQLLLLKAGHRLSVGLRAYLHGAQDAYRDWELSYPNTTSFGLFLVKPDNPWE

[3] = target: T3, human OX40 receptor (BioLegend Inc, Cat #780804) (human, UniProt P43489 29-214); experiment: ELISA: 1x10^6 BC-PIV particles coated per well, receptor added at 1, 10, 50, 100 ng, HRP-Protein A, absorbance at 450 nm
T3 construct: Bought reagent; No Fc tag is stated for this one, but detection was by HRP-Protein A 'adsorbed on the human Fc region', so a human Fc tag is likely; also called human OX40 receptor protein
T3 sequence: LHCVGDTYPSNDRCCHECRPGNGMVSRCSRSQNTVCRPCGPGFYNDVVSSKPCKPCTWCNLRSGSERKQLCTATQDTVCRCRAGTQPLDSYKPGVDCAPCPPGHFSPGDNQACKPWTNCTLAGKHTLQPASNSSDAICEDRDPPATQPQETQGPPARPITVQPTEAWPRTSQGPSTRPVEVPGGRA

B1: trimeric mouse OX40 receptor (C-terminal human IgG Fc Tag; BioLegend Inc, Cat #78904) (Fc fusion)
chain: VTARRLNCVKHTYPSGHKCCRECQPGHGMVSRCDHTRDTLCHPCETGFYNEAVNYDTCKQCTQCNHRSGSELKQNCTPTQDTVCRCRPGTQPRQDSGYKLGVDCVPCPPGHFSPGNNQACKPWTNCTLSGKQTRHPASDSLDAVCEDRSLLATLLWETQRPTFRPTTVQSTTVWPRTSELPSPPTLVTPEGP
notes: Bought reagent, called 'trimeric'; not shown: C-terminal human IgG Fc tag
binding result [1]: binds

B2: mouse 4-1BB receptor (C-terminal human IgG Fc Tag; BioLegend Inc, Cat #756704) (Fc fusion)
chain: VQNSCDNCQPGTFCRKYNPVCKSCPPSTFSSIGGQPNCNICRVCAGYFRFKKFCSSTHNAECECIEGFHCLGPQCTRCEKDCRPGQELTKQGCKTCSLGTFNDQNGTGVCRPWTNCSLDGRSVLKTGTTEKDVVCGPPVVSFSPSTTISVTPEGGPGGHSLQVL
notes: Bought reagent; also called mouse 4-1BB receptor protein; not shown: C-terminal human IgG Fc tag
binding result [2]: binds

B3: human OX40L incorporated into the envelope of BC-PIV particles (ligand)
chain: MERVQPLEENVGNAARPRFERNKLLLVASVIQGLGLLLCFTYICLHFSALQVSHRYPRIQSIKVQFTEYKKEKGFILTSQKEDEIMKVQNNSVIINCDGFYLISLKGYFSQEVNISLHYQKDEEPLFQLKKVRSVNSLMVASLTYKDKVYLNVTTDNTSLDDFHVNGGELILIHQNPGEFCVL
modifications: Membrane-anchored type II protein on the BC-PIV envelope, expected as a homotrimer; one protomer is given.
notes: Whole membrane protein on virus particles coated on the ELISA plate; also called human OX40L-carrying BC-PIV
binding result [3]: binds
